{"source": "patent US8147817B2", "about": "“IL-33 in the treatment and diagnosis of diseases and disorders” (The Brigham and Women's Hospital, Inc., priority 2006, dated 2012)", "key": {"[1]": {"system": "cardiac fibroblasts", "assay": "Cardiac fibroblast proliferation", "type": "cell-based, rat", "protocol": "A 3-(4,5-dimethylthiazol-2-yl)-5-(3-carboxymethoxyphenyl)-2-(4-sulfophenyl)-2H-tetrazolium salt (MTS) assay was performed with CellTiter 96 AQueous One Solution Cell Proliferation Assay kit (Promega, Madison, Wis.). Actual cell number in each group was also counted manually after exclusion of dead cells by Trypan blue staining. Cell cycle of cardiac fibroblasts was analyzed as previously described (9). Briefly, cardiac fibroblasts were seeded at a density of 1.5×10^5 cells per 60 mm dishes and serum-starved for 24 hrs. After treatment, cells were trypsinized, fixed in 80% ethanol at −20° C. and labeled with 50 ug/ml propidium iodide (Sigma) with 50 ug/ml RNaseA (Sigma). Then propidium iodide fluorescence was analyzed by flow cytometer (CYTOMICS FC500, Beckman Coulter, Fullerton, Calif.). Total population was initially gated to remove cell debris, and 1×10^4 cells were assessed for each DNA histogram using CXP software (Beckman Coulter)."}, "[2]": {"system": "rat neonatal cardiomyocytes", "assay": "Cardiomyocyte apoptosis assays (H2O2 stimulus)", "type": "cell-based", "protocol": "For cardiomyocyte apoptosis assays, cardiomyocytes were plated overnight, cultured serum-free for 24 hours, and then subjected to 0.1 mM H2O2 for another 24 hours with or without treatment with purified rat mature IL-33 protein. TUNEL staining (FIG. 19) was performed using a TUNEL staining kit (Roche Diagnostics Corp., Indianapolis, Ind.). For DNA fragmentation experiments (FIGS. 19 and 20), cells were trypsinized, fixed with ethanol, incubated in RNase, stained with propidium iodide, and then subjected to flow cytometry (Cytomics FC 500; Beckman Coulter).\nMembranes (PVDF, PerkinElmer) were incubated with primary antibodies overnight (anti-cleaved caspase-3, 1:1000; from Cell Signaling Technology) at 4° C., detected with horseradish peroxidase-conjugated antibodies (Bio-Rad) and enhanced chemiluminescence (FIG. 20)."}, "[3]": {"system": "NF-κB", "assay": "NF-κB nuclear binding activity by EMSA in cardiac fibroblasts", "type": "cell-based, rat", "conditions": "angiotensin-II 1 μM, phenylephrine 50 μM, IL-33 10 ng/ml", "protocol": "Electromobility shift assays were performed as described previously (8). Cells were lysed for 10 minutes on ice in a solution containing 10 mM HEPES (pH 7.6), 15 mM KCl, 2 mM MgCl2, 0.1 mM ethylenediamine tetraacetic acid (EDTA), 1 mM dithiothreitol (DTT), 0.5 mM phenylmethylsulphonylfluoride (PMSF), 10 μg/mL leupeptin and 0.2% Nonident P-40. Dishes were gently scraped, and nuclei were collected by centrifugation at 800 g for 30 seconds and then suspended in a solution of 50 mM HEPES, 400 mM KCl, 0.1 mM EDTA, 10% glycerol, 1 mM DTT, 0.5 mM PMSF and 10 μg/mL leupeptin. The mixture was incubated on ice for 30 minutes, and the supernatant was collected after centrifugation for 15 minutes at 400 g. Binding reactions were performed with 5 or 10 μg of nuclear protein in 10 mM Tris, 1 mM DTT, 1 mM EDTA, 5% glycerol, 0.1% Triton X-100, 1 mg poly(dIdC), 5 μg bovine serum albumin (BSA) and approximately 10,000 cpm of −32P-labeled oligonucleotide. The binding reactions for AP-1 activity also contained 5 mM MgCl2. Control reaction mixtures contained a 100-fold excess of unlabeled oligonucleotide and were incubated with nuclear extracts of IL-1β-treated cells. DNA complexes were separated on a 4% nondenaturing polyacrylamide gel in Tris-HCl (6.7 mM), EDTA (1 mM) and ammonium acetate (3.3 mM). The oligonucleotides contained the NF-B binding site (sequence: 5′-AGTTGAGGGGACTTTCCCAGGC-3′ (SEQ ID NO: 15)) and were labeled by standard procedures.\nEMSAs were performed as described previously (47). Cells were lysed for 10 minutes on ice in 10 mM HEPES (pH 7.6), 15 mM KCl, 2 mM MgCl2, 0.1 mM EDTA, 1 mM DTT, 0.5 mM PMSF, 10 μg/mL leupeptin, and 0.2% Nonident P-40. Dishes were gently scraped, and nuclei were collected by centrifugation at 800 g for 30 seconds and then suspended in a solution of 50 mM HEPES, 400 mM KCl, 0.1 mM EDTA, 10% glycerol, 1 mM DTT, 0.5 mM PMSF, and 10 μg/mL leupeptin. The mixture was incubated on ice for 30 minutes, and the supernatant was collected after centrifugation for 15 minutes at 400 g. […]"}, "[4]": {"system": "NF-κB", "assay": "NF-κB luciferase reporter assay in neonatal rat cardiomyocytes", "type": "cell-based", "conditions": "angiotensin-II with IL-33 co-treatment, n=3", "protocol": "Neonatal rat cardiomyocytes were transfected using Lipofectamine Plus (Invitrogen) with a luciferase reporter plasmid for NF-κB and with β-galactosidase, as described previously (47). After 48 hours of transfection, cells were then stimulated for an additional 24 hours, lysed and treated with Dual-Light assay system (Applied Biosystems, Foster City, Calif.), and analyzed using a luminometer (PerkinElmer Waltham, Calif.)."}}, "note": "“Also recorded” adds a separate entry of the source.", "data": [{"molecule": "IL-33: recombinant mature rat IL-33, starting with amino acid 109 of the full-length protein, N-terminal His tag (GenBank BC081993) (protein, left off: small tags and cut ends) SIQGTSLLTESCALSTYNDQSVSFVLENGCYVINVEDCGKNQEKDKVLLRYYESSFPAQSGDGVDGKKLMVNMSPIKDTDIWLNANDKDYSVELQKGDVSPPDQAFFVLHKKSSDFVSFECKNLPGTYIGVKDNQLALVEENDESCNNIMFKLSKM", "values": [{"measurement": "cardiac fibroblast proliferation, IL-33 alone", "setting": "[1]", "value": "can induce cardiac fibroblast proliferation"}, {"measurement": "cardiac fibroblast proliferation induced by angiotensin II", "setting": "[1]; co-treatment with IL-33", "value": "antagonizes cardiac fibroblast proliferation induced by angiotensin II; also recorded: antagonizes the proliferation induced by angiotensin II"}, {"measurement": "apoptosis (TUNEL staining, flow cytometry and caspase-3 evaluation together)", "setting": "[2]", "value": "can prevent apoptosis in cardiac myocytes"}, {"measurement": "apoptosis by TUNEL staining", "setting": "[2]", "value": "can prevent apoptosis in cardiac myocytes; also recorded: can reduce apoptosis in cardiac myocytes"}, {"measurement": "apoptosis by caspase-3 activation", "setting": "[2]", "value": "can prevent apoptosis in cardiac myocytes"}, {"measurement": "apoptosis by flow cytometry after propidium iodide staining", "setting": "[2]", "value": "can prevent apoptosis in cardiac myocytes"}, {"measurement": "NF-κB activation by agent alone", "setting": "[3]", "value": "independently activated NF-κB in both cell types"}, {"measurement": "increase of NF-κB promoter activity", "setting": "[4]", "value": "8+/−12%"}]}]}
